Measurements from patent US20210355194A1 (TWIST BIOSCIENCE, published 2021).
Where a chain is given by its changes, count along the chain named.

B1: variant 6-103 (Fc fusion)
VHH: EVQLVESGGGLVQPGGSLRLSCAASGRTSSPIAMGWFRQAPGKEREPVAVRWSDDYTYYADSVKGRFTISADNSKNTAYLQMNSLKPEDTAVYYCAKKLGGYYAFDIWGQGTLVTVSS
B2: variant 6-5 (Fc fusion)
VHH: EVQLVESGGGLVQPGGSLRLSCAASGRTFTMGWFRQAPGKEREFVASTNSAGSTNYADSVNGRFTISADNSKNTAYLQMNSLKPEDTAVYYCTTVDQYFDYWGQGTLVTVSS
B3: variant 6-78 (Fc fusion)
VHH: EVQLVESGGGLVQPGGSLRLSCAASGRTYDAMGWFRQAPGKEREFVASVTSGGYTHYADSVKGRFTISADNSKNTAYLQMNSLKPEDTAVYYCAKFGRKIVGATELDYWGQGTLVTVSS
B4: variant 5-32 (Fc fusion)
VHH: EVQLVESGGGLVQPGGSLRLSCAASGFTPDNYAMGWFRQAPGKEREFVAALGWSGVTTYHYYADSVKGRFTISADNSKNTAYLQMNSLKPEDTAVYYCASDESDAANWGQGTLVTVSS
B5: variant 6-43 (Fc fusion)
VHH: EVQLVESGGGLVQPGGSLRLSCAASGRTFSSYAMMGWFRQAPGKEREFVASVNWDASQINYADSVKGRFTISADNSKNTAYLQMNSLKPEDTAVYYCTTLGAVYFDSSGYHDYFDYWGQGTLVTVSS
B6: variant 6-58 (Fc fusion)
VHH: EVQLVESGGGLVQPGGSLRLSCAASGRAVSTYAMGWFRQAPGKEREFVAAISGSENVTSYADSVKGRFTISADNSKNTAYLQMNSLKPEDTAVYYCLSVTGDTEDYGVFDTWGQGTLVTVSS
B7: variant 6-45 (Fc fusion)
VHH: EVQLVESGGGLVQPGGSLRLSCAASGNMFSINAMGWFRQAPGKEREFVTLISWSSGRTSYADSVKGRFTISADNSKNTAYLQMNSLKPEDTAVYYCASLGYCSGGSCFDYWGQGTLVTVSS
B8: variant 6-20 (Fc fusion)
VHH: EVQLVESGGGLVQPGGSLRLSCAASGSTLPYHAMGWFRQAPGKEREFVAAITWNGASTSYADSVKGRFTISADNSKNTAYLQMNSLKPEDTAVYYCARDRYYDTSASYFESETWGQGTLVTVSS
B9: variant 6-18 (Fc fusion)
VHH: EVQLVESGGGLVQPGGSLRLSCAASGLTFRNYAMGWFRQAPGKEREFIAGMMWSGGTTTYADSVKGRFTISADNSKNTAYLQMNSLKPEDTAVYYCAREGYYYDSSGYLNYFDYWGQGTLVTVSS
B10: variant 6-22 (Fc fusion)
VHH: EVQLVESGGGLVQPGGSLRLSCAASGRTFSEVVMGWFRQAPGKEREFVATIHSSGSTSYADSVKGRFTISADNSKNTAYLQMNSLKPEDTAVYYCVRVTSDYSMDSWGQGTLVTVSS
B11: variant 5-37 (Fc fusion)
VHH: EVQLVESGGGLVQPGGSLRLSCAASGSTFSINAMGWFRQAPGKEREFVGGISRSGATTNYADSVKGRFTISADNSKNTAYLQMNSLKPEDTAVYYCAADGVPEYSDYASGPVWGQGTLVTVSS
B12: variant 5-20 (Fc fusion)
VHH: EVQLVESGGGLVQPGGSLRLSCAASGRTIVPYTMGWFRQAPGKERELVAAISPSAFTEYADSVKGRFTISADNSKNTAYLQMNSLKPEDTAVYYCAARRWGYDWGQGTLVTVSS
B13: variant 5-56 (Fc fusion)
VHH: EVQLVESGGGLVQPGGSLRLSCAASGRTFSSNMGWFRQAPGKEREFVARIFGGDRTLYADSVKGRFTISADNSKNTAYLQMNSLKPEDTAVYYCADINGDWGQGTLVTVSS
B14: variant 6-39 (Fc fusion)
VHH: EVQLVESGGGLVQPGGSLRLSCAASGFTFSPSWMGWFRQAPGKEREFVAAISWSGGSTAYADSVKGRFTISADNSKNTAYLQMNSLKPEDTAVYYCHGLGEGDPYGDYEGYFDLWGQGTLVTVSS
B15: variant 6-13 (Fc fusion)
VHH: EVQLVESGGGLVQPGGSLRLSCAASGLTFNDYAMGWFRQAPGKEREFVAHIPRSTYSPYYADSVKGRFTISADNSKNTAYLQMNSLKPEDTAVYYCAFLVGPQGVDHGAFDVWGQGTLVTVSS
B16: variant 5-47 (Fc fusion)
VHH: EVQLVESGGGLVQPGGSLRLSCAASGFTFGSYDMGWFRQAPGKEREFVTAINWSGARTAYADSVKGRFTISADNSKNTAYLQMNSLKPEDTAVYYCAARSVYSYEYNWGQGTLVTVSS
B17: variant 6-46 (Fc fusion)
VHH: EVQLVESGGGLVQPGGSLRLSCAASGLTFSAMGWFRQAPGKEREFVALIRRDGSTIYADSVKGRFTISADNSKNTAYLQMNSLKPEDTAVYYCAALGILFGYDAFDIWGQGTLVTVSS
B18: variant 6-37 (Fc fusion)
VHH: EVQLVESGGGLVQPGGSLRLSCAASGHTFSTSWMGWFRQAPGKEREFVATINSLGGTNYADSVKGRFTISADNSKNTAYLQMNSLKPEDTAVYYCARVSSGDYGMDVWGQGTLVTVSS
B19: variant 6-26 (Fc fusion)
VHH: EVQLVESGGGLVQPGGSLRLSCAASGDTFSTSWMGWFRQAPGKEREFVATINTGGGTNYADSVKGRFTISADNSKNTAYLQMNSLKPEDTAVYYCARVTTSFDYWGQGTLVTVSS
B20: variant 6-30 (Fc fusion)
VHH: EVQLVESGGGLVQPGGSLRLSCAASGFAFGDSWMGWFRQAPGKEREFVATINWSGVTAYADSVKGRFTISADNSKNTAYLQMNSLKPEDTAVYYCARADGYFDYWGQGTLVTVSS
B21: variant 6-77 (Fc fusion)
VHH: EVQLVESGGGLVQPGGSLRLSCAASGFTFDRSWMGWFRQAPGKEREFVAAVTEGGTTSYADSVKGRFTISADNSKNTAYLQMNSLKPEDTAVYYCARADYDFDYWGQGTLVTVSS
B22: variant 5-67 (Fc fusion)
VHH: EVQLVESGGGLVQPGGSLRLSCAASGFNVNDYAMGWFRQAPGKEREFVAGITSSVGVTNYADSVKGRFTISADNSKNTAYLQMNSLKPEDTAVYYCAADIFFVNWGRGTLVTVSS
B23: variant 6-2 (Fc fusion)
VHH: EVQLVESGGGLVQPGGSLRLSCAASGFTMSSSWMGWFRQAPGKEREFVTVISGVGTSYADSVKGRFTISADNSKNTAYLQMNSLKPEDTAVYYCARGPDSSGYGFDYWGQGTLVTVSS
B24: variant 6-60 (Fc fusion)
VHH: EVQLVESGGGLVQPGGSLRLSCAASGDTYGSYWMGWFRQAPGKEREFVATISQSGAATAYADSVKGRFTISADNSKNTAYLQMNSLKPEDTAVYYCAGLLRYSGTYYDAFDVWGQGTLVTVSS
B25: variant 5-60 (Fc fusion)
VHH: EVQLVESGGGLVQPGGSLRLSCAASGRSFSSHRMGWFRQAPGKEREFVAAIMWSGSHRNYADSVKGRFTISADNSKNTAYLQMNSLKPEDTAVYYCAAIAYEEGVYRWDWGQGTLVTVSS
B26: variant 6-32 (Fc fusion)
VHH: EVQLVESGGGLVQPGGSLRLSCAASGFTLDYYDMGWFRQAPGKEREFVALISWSGGSTYYADSVKGRFTISADNSKNTAYLQMNSLKPEDTAVYYCATDFYGWGTRERDAFDIWGQGTLVTVSS
B27: variant 6-10 (Fc fusion)
VHH: EVQLVESGGGLVQPGGSLRLSCAASGSIASIHAMGWFRQAPGKEREFVAAISRSGGFGSYADSVKGRFTISADNSKNTAYLQMNSLKPEDTAVYYCARDDKYYDSSGYPAYFQHWGQGTLVTVSS
B28: variant 6-24 (Fc fusion)
VHH: EVQLVESGGGLVQPGGSLRLSCAASGFTLDYYAMGWFRQAPGKEREFVAAINWSGDNTHYADSVKGRFTISADNSKNTAYLQMNSLKPEDTAVYYCARAPFYCTTTKCQDNYYYMDVWGQGTLVTVSS
B29: variant 6-38 (Fc fusion)
VHH: EVQLVESGGGLVQPGGSLRLSCAASGNTFSGGFMGWFRQAPGKEREFVAVISSLSSKSYADSVKGRFTISADNSKNTAYLQMNSLKPEDTAVYYCAKVDSGYDYWGQGTLVTVSS
B30: variant 6-42 (Fc fusion)
VHH: EVQLVESGGGLVQPGGSLRLSCAASGDTYGSYWMGWFRQAPGKEREFVAVITSGGSTNYADSVKGRFTISADNSKNTAYLQMNSLKPEDTAVYYCTHVQNSYYYAMDVWGQGTLVTVSS
B31: variant 5-63 (Fc fusion)
VHH: EVQLVESGGGLVQPGGSLRLSCAASGFSLDYYDMGWFRQAPGKEREFVAALGWSGGSTDYADSVKGRFTISADNSKNTAYLQMNSLKPEDTAVYYCAAGNGGRYGIVERWGQGTLVTVSS
B32: variant 6-55 (Fc fusion)
VHH: EVQLVESGGGLVQPGGSLRLSCAASGFTMSSSWMGWFRQAPGKEREFVARITSGGSTGYADSVKGRFTISADNSKNTAYLQMNSLKPEDTAVYYCASVDGYFDYWGQGTLVTVSS
B33: variant 6-52 (Fc fusion)
VHH: B32 VHH with F27D, M29Y, S30G, S32Y, F47V, R50A, G58V, S97R, G100S, Y101R
B34: variant 6-34 (Fc fusion)
VHH: EVQLVESGGGLVQPGGSLRLSCAASGSAFRSNAMGWFRQAPGKEREFVAHISWSSKSTYYADSVKGRFTISADNSKNTAYLQMNSLKPEDTAVYYCATYCSSTSCFDYWGQGTLVTVSS
B35: variant 5-1 (Fc fusion)
VHH: EVQLVESGGGLVQPGGSLRLSCAASGGTFSSIGMGWFRQAPGKEREFVAAISWDGGATAYADSVKGRFTISADNSKNTAYLQMNSLKPEDTAVYYCAKEDVGKPFDWGQGTLVTVSS

Target: CV S-protein construct 6 trimer TP31001F (SARS-CoV-2, UniProt P0DTC2 14-1208)
Test: SPR

Binder	Kd [nM]
B1	1
B2	0.8
B3	0.4
B4	0.1
B5	0.7
B6	1
B7	1.3
B8	0.3
B9	5.3
B10	1.8
B11	1.8
B12	1.1
B13	2.77
B14	0.1
B15	0.6
B16	0.7
B17	1.9
B18	0.7

Binder	Kd [nM]
B19	0.07
B20	0.1
B21	3.5
B22	1
B23	1.2
B24	0.1
B25	0.8
B26	0.1
B27	0.6
B28	0.2
B29	0.5
B30	7.8
B31	0.4
B32	0.3
B33	1.1
B34	0.7
B35	0.4
